“And” between values parts separate entries of the source, which are not always exact repeats. Equal values may be shown once. “Also recorded” adds a separate entry of the source. Read-outs that look alike come from different tables or passages of the source.
How the values were obtained:
[1] = Immunogenicity: serum antibody responses to sacituzumab govitecan, the IgG and SN-38 by ELISA in mSCLC patients; format: in vivo, human; conditions: up to 63 doses / up to 22 months of treatment
Method: Positivity required at least 10% of the tumor cells to be stained, with an intensity scored as 1+ (weak), 2+ (moderate), and 3+ (strong). […] Assay sensitivity is 50 ng/mL for the ADC and the IgG, and 170 ng/mL for anti-SN-38 antibody.

[2] = test system: non-small cell lung cancer (NSCLC); conditions: cited from earlier work
[3] = Pharmacokinetics in patient serum: ELISA for IgG and intact conjugate, HPLC for SN-38; format: in vivo, human
Method: SN-38 was measured by HPLC.

[4] = test system: metastatic urothelial cancer; test: Further study of sacituzumab govitecan in metastatic urothelial cancer (mUC), 32 pts enrolled; format: in vivo, human
Text: Response-evaluable pts received ≥2 doses, and had ≥1 post-baseline response assessment.

[5] = in vivo
[6] = test system: diverse metastatic solid cancers
Text: Patients were refractory/relapsed after standard treatment regimens for metastatic cancer.

[7] = test system: metastatic small-cell lung cancer; conditions: cited from earlier work
[8] = test system: platinum-resistant urothelial carcinoma; conditions: 6 patients; cited from earlier work
[9] = test system: metastatic triple-negative breast cancer (TNBC); conditions: second line or later; cited from earlier work
[10] = test system: platinum-resistant urothelial carcinoma; test: Clinical trial of sacituzumab govitecan in 6 patients with metastatic platinum-resistant urothelial carcinoma (PRUC)
Method: Response was assessed using the Response Evaluation Criteria in Solid Tumors, version 1.1.

[11] = 48 assessable pts excluding PDC
[12] = esophageal cancer, 4 assessable patients

sacituzumab govitecan
immunogenicity (antibodies to sacituzumab govitecan, hRS7 antibody or SN-38) [1]: not immunogenic; also recorded: No neutralizing antibodies
clinical benefit rate ([2]; 47 patients): 43%
ORR ([2]; 47 response assessable patients, median three prior therapies): 19%
median OS ([2]; human, in vivo): 9.5 months
median PFS ([2]; human, in vivo): 5.2 months
clearance of intact conjugate compared with the IgG ([3]; ELISA): cleared more quickly than the IgG
SN-38 in the serum bound to the IgG ([3]; HPLC, Unbound and TOTAL, non-glucuronidated form): > 95%
clearance of the conjugate from the serum ([3]; patients): ≤ 3 days
ORR, pts with 1 line of prior chemotherapy ([4]; 7/13): 53.8%
ORR ([4]; 25 assessable pts, 8 or 10 mg/kg days 1 and 8 every 21 days): 36%
grade 3 hypophosphatemia ([4]; 25 pts): 8%
grade 4 neutropenia ([4]; 25 pts): 16%
duration of response for CR/PR pts ([4]; 95% CI 4.1-12.9): 5.1 mos
median PFS ([4]; all patients, 95% CI 4.9-10.7): 7.2 mos
ORR, pts with 2 to 5 prior therapy lines ([4]; in vivo): 16.7%
duration of grade 4 neutropenia ([4]; in vivo): < 7 days
PR among pts with progression after prior IO ([4]; of 4 pts): 1 patients
complete responses (CR) ([4]; of 25 pts): 1 patients
partial responses (PR) ([4]; of 25 pts): 8 patients
pts with stable disease >4 mos ([4]; of the SD pts): 10/11
SN-38 released daily [5]: 50%
partial response (PR), % of patients [6, 11]: 15%
stable disease (SD), % of patients [6, 11]: 56%
disease response, % of patients ([6]; 48 assessable pts excluding PDC, printed 38 pts): 79%
maximum reduction in target lesions ([6]; CRC case, after 10 months of treatment): 65%
CEA after treatment ([6]; CRC case, decrease from 781 ng/mL): 26.5 ng/mL
reduction in target lesions at first CT assessment ([6]; CRC case, starting dose 8 mg/kg): 37%
total response [PR+SD] ([6]; CRC, 12/18): 67%
PD, patients ([6]; CRC, 18 assessable patients): 6 patients
PR, patients ([6]; CRC, 18 assessable patients): 1 patients
primary target lesion size at first CT ([6]; NSCLC case, 5.6 cm at start, after 6th dose): 3.2 cm
total response [PR+SD] ([6]; NSCLC, 4/5): 80%
PD, patients ([6]; NSCLC, 5 assessable patients): 1 patients
PR, patients ([6]; NSCLC, 5 assessable patients): 1 patients
reduction in target lesions ([6]; SCLC case, 12 mg/kg reduced to 6.8 mg/kg, after two months): 38%
total response [PR+SD] ([6]; SCLC, 2/4): 50%
PD, patients ([6]; SCLC, 4 assessable patients): 2 patients
PR, patients ([6]; SCLC, 4 assessable patients): 2 patients
total response [PR+SD] ([6]; TNBC, 6/8): 75%
PD (progressive disease), patients ([6]; TNBC, 8 assessable patients): 2 patients
PR (partial response), patients ([6]; TNBC, 8 assessable patients): 2 patients
total response [PR+SD] ([6]; all, 34/48): 71%
PD, patients ([6]; all, 48 assessable patients): 14 patients
PR, patients ([6]; all, 48 assessable patients): Seven
PR, patients ([6]; all, 48 assessable patients, listed as hRS7-SN-38): 7 patients
total response [PR+SD] ([6]; esophageal cancer, 3/4): 75%
PD, patients [6, 12]: 1 patients
PR, patients [6, 12]: 1 patients
Abdominal pain, Grade 3 ([6]; in vivo): 0
Abdominal pain, Grade 4 ([6]; in vivo): 0
Abdominal pain, TOTAL ([6]; in vivo): 11%
Alopecia, TOTAL ([6]; in vivo): 40%
Anemia, Grade 4 ([6]; in vivo): 0
Anemia, TOTAL ([6]; in vivo): 13%
Deep vein thrombosis, Grade 3 ([6]; in vivo): 1 (2%)
Deep vein thrombosis, Grade 4 ([6]; in vivo): 0
Deep vein thrombosis, TOTAL ([6]; in vivo): 2%
Diarrhea, Grade 4 ([6]; in vivo): 0
Diarrhea, TOTAL ([6]; in vivo): 47%
Dysgeusia, Grade 3 ([6]; in vivo): 0
Dysgeusia, Grade 4 ([6]; in vivo): 0
Dysgeusia, TOTAL ([6]; in vivo): 15%
Fatigue, Grade 4 ([6]; in vivo): 0
Fatigue, TOTAL ([6]; in vivo): 55%
Hypokalemia, Grade 3 ([6]; in vivo): 1 (2%)
Hypokalemia, Grade 4 ([6]; in vivo): 0
Hypokalemia, TOTAL ([6]; in vivo): 11%
Nausea, Grade 4 ([6]; in vivo): 0
Nausea, TOTAL ([6]; in vivo): 53%
Neutropenia, TOTAL ([6]; in vivo): 43%
Pyrexia, Grade 3 ([6]; in vivo): 0
Pyrexia, Grade 4 ([6]; in vivo): 0
Pyrexia, TOTAL ([6]; in vivo): 13%
Vomiting, Grade 4 ([6]; in vivo): 0
Vomiting, TOTAL ([6]; in vivo): 32%
WBC Decrease, Grade 3 ([6]; in vivo): 1 (2%)
WBC Decrease, Grade 4 ([6]; in vivo): 0
WBC Decrease, TOTAL ([6]; in vivo): 6%
alopecia ([6]; in vivo): 40%
anemia, grade 3 ([6]; in vivo): 2 (4%)
anti-hRS7 or anti-SN-38 antibodies ([6]; in vivo): No anti-hRS7 or anti-SN-38 antibodies were detected
diarrhea ([6]; in vivo): 47%
diarrhea >=G3 ([6]; in vivo): 9%
diarrhea, grade 3 ([6]; in vivo): 4 (9%)
fatigue ([6]; in vivo): 55%
fatigue >=G3 ([6]; in vivo): 9%
fatigue, grade 3 ([6]; in vivo): 4 (9%)
nausea ([6]; in vivo): 53%
nausea >=G3 ([6]; in vivo): 0%
nausea, grade 3 ([6]; in vivo): 0
neutropenia >=G3 ([6]; in vivo): 28%
neutropenia G4 ([6]; in vivo): 4%
neutropenia, grade 3 ([6]; in vivo): 11 (24%)
neutropenia, grade 4 ([6]; in vivo): 2 (4%)
vomiting ([6]; in vivo): 32%
vomiting >=G3 ([6]; in vivo): 2%
vomiting, grade 3 ([6]; in vivo): 1 (2%)
median time to progression (TTP), PDC pts ([6]; pancreatic cancer, 8 wks in last prior therapy): 12.7 wks and 11.9 wks
TTP, remaining 48 pts ([6]; range 6.0 to 51.4 wks): ≥ 12.6 wks
ORR ([7]; 53 mSCLC patients (Gray et al., 2017)): 14%
median OS ([7]; Gray et al., 2017): 7.5 months
median PFS ([7]; Gray et al., 2017): 3.7 months
median response duration ([7]; Gray et al., 2017): 5.7 months
patients with tumor shrinkage from baseline ([7]; Gray et al., 2017): Sixty
clinically significant response [8]: 50%
median progression-free survival (PFS) [9]: 5.5 months
overall survival (OS) [9]: 13.0 months
response rate [9]: 33.3%
grade 4 non-hematologic toxicities ([10]; 6 patients): No grade 4 non-hematologic toxicities were observed
tolerability ([10]; 6 patients): generally well tolerated
patients with a clinically significant response ([10]; of 6 patients): 3 patients
patients with grade 3 toxicities (flank pain and bacteremia) ([10]; of 6 patients): Two
patients with progressive disease ([10]; of 6 patients): 3 patients
patients with partial response ([10]; of 6 patients, RECIST 1.1): Two
reduction in target lesions, patient with progressive disease because of a new lesion ([10]; one patient): 12%
reduction in target lesions, patient with stable disease ([10]; one patient): 28%
reduction in target lesions, best responder ([10]; partial response, including liver metastases): 38%
